Biological target: the molecule itself
Experiment: dynamic light scattering

B1: Peptide G37 (peptide)
peptide: SLLTEVETPIRNEWGCRCNDSSD
  binding result: binds

— article doi:10.1101/2022.07.04.498777 (bioRxiv, 2022)
